B1: PGN_1888 (Porphyromonas gingivalis ATCC 33277) (protein)
chain: MQWQELYRQRVCSADEAVVDSLKPGTKVVFGHAAAAPVRFSQAMYRQRERLENITVFHMLYFGDAPHLAPEMRSHVHPTLNFLEGNSRPASRDRRVDFIPCHFHEVPELFRQGFFPLDVAVVQVSTPNEEGYCSFGVSCDYTKAAAECAPVVVAEVNKQMPFIGGENLIHISNLTHIIEVDEPIAEVLPPAISDLELRIGQNCASLIKDGDTLQLGIGGIPDAVLRALEGHKDLGIHTEMFTDGVMRMIRKGIINGKKKTLHPEKVVTSLIFGSKELYDFVNNNPVIECYPVDYINNPDVIGKNDRMVSINSCLEMDLMGQAASESIGYEQFSGSGGQVDFLRGAKRSKGGISIMAFPSTAKKGTESRIVPILKEGACVTTGRNEVDYVVTEYGVARLRGATLRQRAEALTAIAHPDFRPALEEEIRRRFE
notes: recombinant full-length, pGEX-6P-1 (GST vector) in E. coli; 431 aa
B2: PGN_0725 (Porphyromonas gingivalis ATCC 33277) (protein)
chain: MKDVLAEYASRIVSAEEAVKHIKNGERVALSHAAGVPQSCVDALVQQADLFQNVEIYHMLCLGEGKYMAPEMAPHFRHITNFVGGNSRKAVEENRADFIPVFFYEVPSMIRKDILHIDVAIVQLSMPDENGYCSFGVSCDYSKPAAESAHLVIGEINRQMPYVHGDNLIHISKLDYIVMADYPIYSLAKPKIGEVEEAIGRNCAELIEDGATLQLGIGAIPDAALLFLKDKKDLGIHTEMFSDGVVELVRSGVITGKKKTLHPGKMVATFLMGSEDVYHFIDKNPDVELYPVDYVNDPRVIAQNDNMVSINSCIEIDLMGQVVSECIGSKQFSGTGGQVDYVRGASWSKNGKSIMAIPSTAKNGTASRIVPIIAEGAAVTTLRNEVDYVVTEYGIAQLKGKSLRQRAEALIAIAHPDFREELTEHLRKRFG
notes: as for B1
B3: PGN_1341 (Porphyromonas gingivalis ATCC 33277) (protein)
chain: MALRFITAEEAAEFVHHNDNVGFSGFTPAGNPKVVPAAIAKRAIAEHEKGNPFKIGMFTGASTGARLDGVLAQADAVKFRTPYQSNKDLRNLINNGSTSYFDLHLSTLAQDLRYGFYGKVDVAIIEVADVTEDGKILPTTGVGILPTICRLADRIIVELNDKHPKEIMGMHDLCEPLDPPARRELPVYTPSDRIGKPYVQVDPAKIVGVVRTSEPNDESDFAPLDPVTQAIGDNVAAFLVSEMKAGRIPKDFLPLQSGVGNVANAVLGALGDNPDIPAFNMYTEVIQDAVIALMKKGRIKFASGCSLSVSRSVIQDIYANLDFFKDKILLRPQEYSNNPEIVRRLGVITINTALEADIFGNINSTHVSGTRMMNGIGGSGDFTRNSYVSIFTTPSVMKDGKISSFVPMVAHHDHSEHSVKVIISEWGVADLRGKNPRERAHEIIDKCVHPDYRPLLRQYLELGVKGQTPQNLDCCFAFHQELAKSGDMRNVRWEDYMK
notes: recombinant full-length, pGEX-6P-1 (GST vector) in E. coli; 498 aa

Columns and labels:
[1] = substrate: CCC(=O)SCCNC(=O)CCNC(=O)[C@H](O)C(C)(C)COP(=O)(O)OP(=O)(O)OC[C@H]1O[C@@H](n2cnc3c(N)ncnc32)[C@H](O)[C@@H]1OP(=O)(O)O; test: acetyl-CoA formation, citrate synthase/DTNB A412, secondary plots; assay type: biochemical, Porphyromonas gingivalis; conditions: co-substrate sodium acetate, 40 mM potassium phosphate pH 8.0, ternary-complex mechanism
Text: (§1) acetyl-CoA formation, citrate synthase/DTNB A412, secondary plots on PGN_1888

[2] = substrate: CCCC(=O)SCCNC(=O)CCNC(=O)[C@H](O)C(C)(C)COP(=O)(O)OP(=O)(O)OC[C@H]1O[C@@H](n2cnc3c(N)ncnc32)[C@H](O)[C@@H]1OP(=O)(O)O; test: as above; assay type: biochemical, Porphyromonas gingivalis; conditions: co-substrate sodium acetate, 40 mM potassium phosphate pH 8.0, ternary-complex mechanism
Text: as §1

purified protein = substrate: CC(=O)O; test: purified protein; conditions: co-substrate butyryl-CoA, 40 mM potassium phosphate pH 8.0, ternary-complex mechanism
[3] = substrate: CCC(=O)SCCNC(=O)CCNC(=O)[C@H](O)C(C)(C)COP(=O)(O)OP(=O)(O)OC[C@H]1O[C@@H](n2cnc3c(N)ncnc32)[C@H](O)[C@@H]1OP(=O)(O)O; test: acetyl-CoA formation, citrate synthase/DTNB A412, secondary plots; assay type: biochemical, Porphyromonas gingivalis; conditions: co-substrate sodium acetate, 40 mM potassium phosphate pH 8.0, ternary-complex mechanism; remark: listed apart in the source
Text: (§2) acetyl-CoA formation, citrate synthase/DTNB A412, secondary plots on PGN_0725

[4] = substrate: CCCC(=O)SCCNC(=O)CCNC(=O)[C@H](O)C(C)(C)COP(=O)(O)OP(=O)(O)OC[C@H]1O[C@@H](n2cnc3c(N)ncnc32)[C@H](O)[C@@H]1OP(=O)(O)O; test: as above; assay type: biochemical, Porphyromonas gingivalis; conditions: co-substrate sodium acetate, 40 mM potassium phosphate pH 8.0, ternary-complex mechanism; remark: listed apart in the source
Text: as §2

[5] = substrate: CCCC(=O)SCCNC(=O)CCNC(=O)[C@H](O)C(C)(C)COP(=O)(O)OP(=O)(O)OC[C@H]1O[C@@H](n2cnc3c(N)ncnc32)[C@H](O)[C@@H]1OP(=O)(O)O; test: as above; assay type: biochemical, Porphyromonas gingivalis; conditions: co-substrate sodium acetate, 40 mM potassium phosphate pH 8.0, ternary-complex mechanism; remark: listed apart in the source
Text: acetyl-CoA formation, citrate synthase/DTNB A412, secondary plots on PGN_1341

Protein	Km [1]	kcat [1]	Km [2]	kcat [2]	Km (purified protein)	kcat (purified protein)	Km [3]	kcat [3]	Km [4]	kcat [4]	Km [5]	kcat [5]
B1	23 ± 4.4 µM	1374 ± 477 s⁻¹	920 ± 70 µM	254 ± 10 s⁻¹	33000 ± 5300 µM	254 ± 10 s⁻¹	–	–	–	–	–	–
B2	–	–	–	–	16000 ± 1800 µM	560 ± 4.1 s⁻¹	108 ± 47 µM	533 ± 31 s⁻¹	520 ± 10 µM	560 ± 4.1 s⁻¹	–	–
B3	–	–	–	–	26000 ± 2800 µM	24 ± 0.3 s⁻¹	–	–	–	–	610 ± 40 µM	24 ± 0.3 s⁻¹

From publication PMC4949257, “Three CoA Transferases Involved in the Production of Short Chain Fatty Acids in Porphyromonas gingivalis” (Frontiers in Microbiology, 2016)
